This note sets out measurements from patent publication US20090291081A1 (AbbVie / Abbott, published 2009).

Numbering of substitutions follows the chain as printed.

To fix the notation:
T1: human IL-1α (human, UniProt P01583 113-271)
T1 sequence (looked up): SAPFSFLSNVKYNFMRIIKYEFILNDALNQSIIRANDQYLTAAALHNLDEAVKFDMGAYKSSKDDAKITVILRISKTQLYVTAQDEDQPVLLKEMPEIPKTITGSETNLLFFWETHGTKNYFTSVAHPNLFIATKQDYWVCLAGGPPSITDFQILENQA

B1: ABT1-141-29 (other)
VL: DIQVTQSPSSLSASVGDRVTITCRASQWIQKQLAWYQLKPGKAPKLLIYSSSYLQSGVPSRFSGSGSGTDFTLTISSLQPEDFATYYCQQHLRVPFTFGQGTKVEIKR
B2: ABT1-141-562 (other)
VL: B1 VL with V4M, S26N, L38Q, Y53W, F96M
B3: ABT1-141-33 (other)
VL: B1 VL with V4M, Y53W, F96M
B4: ABT1-141-32 (other)
VL: B1 VL with V4M, V19I, F96M
B5: ABT1-141-31 (other)
VL: B1 VL with V4M, L38Q, Y53W, F96M
B6: ABT1-22 (other)
VH: EVQLLESGGGLVQPGGSLRLSCAASGFTLKAYNMSWVRQAPGKGLEWVSLISSTGMFTDYADSVKGRFTISRDNSKNTLYLQMNSLRAEDTAVYYCAKWGVRRGLYFDYWGQGTLVTVSS
B7: ABT1-3 (other)
VL: DIQMTQSPSSLSASVGDRVTITCRASQSIWTELKWYQQKPGKAPKLLIYGASLLQSGVPSRFSGSGSGTDFTLTISSLQPEDFATYYCQQFAYFPFTFGQGTKVEIKR
B8: ABT1-10 (other)
VL: B7 VL with W30V, T31P, E32N, K34R, L53T, F91G, A92Y, Y93V, F94Y, F96G
B9: ABT1-9 (other)
VL: B7 VL with W30G, T31S, E32S, K34L, G50L, L53R, A92R, Y93S, F94T, F96N
B10: ABT1-23 (other)
VH: EVQLLESGGGLVQPGGSLRLSCAASGFTFSSYPMEWVRQAPGKGLEWVSAIAWPGSMTYYADSVKGRFTISRDNSKNTLYLQMNSLRAEDTAVYYCAKTHRLFDYWGQGTLVTVSS
B11: ABT1-95-177 (other)
VL: DIQMTQSPSSLSASVGDRVTITCRASQPIVRNLRWYQQKPGKAPKLLIYASSYLEPGVPSRFSGSGSGTDFTLTISSLQPEDFATYHCRQGYRWPVTFGQGTKVEIKR
B12: ABT1-95-133 (other)
VL: B11 VL with A50S
B13: ABT1-95-166 (other)
VL: B11 VL with A50S, S51K, R89Q
B14: ABT1-95-178 (other)
VL: B11 VL with A50S, S51V
B15: ABT1-95-A6 (other)
VL: B11 VL with Q27K, I29G, L33M, S51K, R89K, T97Q
B16: ABT1-95-164 (other)
VL: B11 VL with I29G, A50S, R89Q
B17: ABT1-95-173 (other)
VL: B11 VL with T22S, Q27R, A50S
B18: ABT1-95-184 (other)
VL: B11 VL with Q27R, P28T, I29P, A50S, S51R, R89L, V96P
B19: ABT1-95-175 (other)
VL: B11 VL with Q27R
B20: ABT1-95-179 (other)
VL: B11 VL with A50S, V96P
B21: ABT1-95-136 (other)
VL: B11 VL with A50S, Q79H, F83L, R89Q, R93G
B22: ABT1-95-165 (other)
VL: B11 VL with L33M, A50S, R89Q
B23: ABT1-95-171 (other)
VL: B11 VL with Q27R, A50S, S51V, R89Q
B24: ABT1-95-172 (other)
VL: B11 VL with Q27R, S51V, R89Q
B25: ABT1-95-A5 (other)
VL: B11 VL with Q27R, P28T, I29P, A50S, S51R, Y53F, R89L, V96P
B26: ABT1-95-51 (other)
VL: B11 VL with V30I, A50S, R89Q
B27: ABT1-95-169 (other)
VL: B11 VL with S51V, R89Q
B28: ABT1-95-137 (other)
VL: B11 VL with A50S, R89Q, R93L
B29: ABT1-95-162 (other)
VL: B11 VL with Q27K, A50S, R89Q
B30: ABT1-95-134 (other)
VL: B11 VL with A50S, R89A
B31: ABT1-95-176 (other)
VL: B11 VL with Q27R, S51V
B32: ABT1-95-163 (other)
VL: B11 VL with Q27R, A50S, R89Q
B33: ABT1-95-168 (other)
VL: B11 VL with A50S, Y53F, R89Q
B34: ABT1-95-167 (other)
VL: B11 VL with A50S, S51R, T69A, R89Q
B35: ABT1-95-170 (other)
VL: B11 VL with Q27R, R89Q
B36: ABT1-95-A3 (other)
VL: B11 VL with Q27K, I29G, L33M, A50S, S51V, R89L, V96P
B37: ABT1-95-135 (other)
VL: B11 VL with A50S, R89Q, R93S
B38: ABT1-155 (other)
VL: B11 VL with Q27S, R31A, S51A, Y53S, E55Q, P56S, H87Y, R89T, R93V, V96P
B39: ABT1-95-182 (other)
VL: B11 VL with Q27K, I29G, A50S, S51V, R89L, V96P
B40: ABT1-221 (other)
VL: DIQMTQSPSSLSASVGDRVTITCRASQDIWPYLMWYQQKPGKAPKLLIYYSSMLQSGVPSRFSGSGSGTDFTLTISSLQPEDFATYYCQQFRRWPYTFGQGTKVEIKR
B41: ABT1-95-A2 (other)
VL: B11 VL with A25I, S26L, I29P, V30G, A50S, S51K, Y53F, R89Q
B42: ABT1-95-181 (other)
VL: B11 VL with Q27K, L33M, A50S, S51V, R89L, V96P
B43: ABT1-11 (other)
VL: DIQMTQSPSSLSASVGDRVTITCRASQSIPYNLRWYQQKPGKAPKLLIYSASRLQSGVPSRFSGSGSGTDFTLTISSLQPEDFATYYCQQGYSWPMTFGQGTKVEIKR
B44: ABT1-67 (other)
VL: B43 VL with P30H, Y31R, N32S, S50H, R53H, G91Y, Y92K, S93R, W94R, M96S
B45: ABT1-99 (other)
VH: EVQLLESGGGLVQPGGSLRLSCAASGFTFGKYSMTWVRQAPGKGLEWVSVIDPWGHYTYYADSVKGRFTISRDNSKNTLYLQMNSLRAEDTAVYYCAKSVDATLLRRYFDYWGQGTLVTVSS
B46: ABT1-20 (other)
VH: EVQLLETGGGLVQPGGSLRLSCAASGFTFTPYRMGWVRQAPGKGLEWVSHIGIWGANTYYADSVKGRFTISRDNSKNTLYLQMNSLRAEDTAVYYCAKHPRPFDYWGQGTLVTVSS
B47: ABT1-97 (other)
VH: EVQLLESGGGLVQPGGSLRLSCAASGFTFWEYDMYWVRQAPGKGLEWVSRISGSGRYTYYADSVKGRFTISRDNSKNTLYLQMNSLRAEDTAVYYCAKRSLTRPSQFDYWGQGTLVTVSS
B48: ABT1-122-750x (other)
VL: DIQMTQSPSSLSASVGDRVAITCSASQHIWTEISWYQQKPGKAPKLLIYGSASRQKGVPSRFSGSGSGTDFTLTISSLQPEDFATYYCKQFAYFPNTFGQGTKVEIKR

The target of the test is T1, human IL-1α. Kind of test: cell-based or functional assay.
For B1, the ND50 is 20 nM. In the case of B2, the ND50 was above 10 nM. With B3, the ND50 was determined as 3 nM.

In the case of B4, the ND50 came to 10 nM.

The molecule B5 came in with an ND50 of 2 nM. Under B6 stands 7000 nM; under B7, 1000 nM. Under B8 stands above 20000 nM; under B9, 4000 nM; under B10, 5000 nM.

As to B11, the ND50 is 0.008 nM. With B12, the ND50 was determined as 0.05 nM. B13: the ND50 turned out to be 0.035 nM.

Molecule B14 displayed an ND50 of 0.004 nM.

In the case of B15, the ND50 was 0.024 nM. B16 displayed an ND50 of 0.15 nM. In turn, B17 returned an ND50 of 0.151 nM. For the molecule B18, the ND50 is 0.006 nM. B19 yielded an ND50 of 0.017 nM.

Consider B20, for which the ND50 was 0.022 nM. In turn, B21 registered an ND50 of 0.1 nM. Under B22 stands 0.391 nM; under B23, 0.059 nM. Next, B24: 0.171 nM; B25: 0.016 nM; B26: 615 nM. Under B27 stands 0.093 nM; under B28, 0.09 nM; under B29, 0.186 nM.

As for B30, the ND50 was 0.075 nM. Next, B31: 0.027 nM.

As to B32, the ND50 turned out to be 0.05 nM. Under B33 stands 2.3 nM; under B34, 0.469 nM. With B35, the ND50 is 0.2 nM. In turn, B36 gave an ND50 of 0.011 nM. The molecule B37 returned an ND50 of 0.1 nM. Under B38 stands 20 nM; under B39, 0.005 nM. With B40, the ND50 was found to be 100 nM. Next, B41: 0.133 nM.

On to B42, for which the ND50 stood at 0.014 nM.

Take B43: the ND50 was above 20000 nM. In the case of B44, the ND50 is 0.044 nM. As to B45, the ND50 was 500 nM. As for B46, the ND50 worked out at 1000 nM. The molecule B47 registered an ND50 of 3000 nM. As to B48, the ND50 came out at 0.713 nM.
